Measured values published in PMC5716667.

Target: COPI coatomer (heptameric complex) (Chlamydomonas reinhardtii (endogenous in C. reinhardtii cells))
Assay: cryo-EM structure; in situ cryo-electron tomography of cryo-FIB milled vitrified C. reinhardtii cells, reference-free subtomogram averaging of the COPI triad with three-fold symmetry, 20 Å; PDB 5A1U fitted as a rigid body; separate averages of buds, vesicles and Golgi regions

stoichiometry N: 3
Substance: COPI coatomer (heptameric complex)
